Assay results taken from article PMC8190259, “Site-specific ubiquitylation acts as a regulator of linker histone H1” (Nature Communications, 2021).

B1: 601 DNA (dsDNA)
DNA 1: CTATACGCGGCCGCCCTGGAGAATCCCGGTGCCGAGGCCGCTCAATTGGTCGTAGCAAGCTCTAGCACCGCTTAAACGCACGTACGCGCTGTCCCCCGCGTTTTAACCGCCAAGGGGATTACTCCCTAGTCTCCAGGCACGTGTCAGATATATACATCCTGTGCATGTGGATCCGAAT
DNA 2: ATTCGGATCCACATGCACAGGATGTATATATCTGACACGTGCCTGGAGACTAGGGAGTAATCCCCTTGGCGGTTAAAACGCGGGGGACAGCGCGTACGTGCGTTTAAGCGGTGCTAGAGCTTGCTACGACCAATTGAGCGGCCTCGGCACCGGGATTCTCCAGGGCGGCCGCGTATAG
B2: SIRT1 with N-terminal deletion (recombinant) (enzyme, human, UniProt Q96EB6 1-3, looked up)
chain: MADEAAAAGGEQEAQATAAAGEGDNGPGLQGPSREPPLADNLYDEDDDDEGEEEEEAAAAAIGYRDNLLFGDEIITNGFHSCESDEEDRASHASSSDWTPRPRIGPYTFVQQHLMIGTDPRTILKDLLPETIPPPELDDMTLWQIVINILSEPPKRKKRKDINTIEDAVKLLQECKKIIVLTGAGVSVSCGIPDFRSRDGIYARLAVDFPDLPDPQAMFDIEYFRKDPRPFFKFAKEIYPGQFQPSLCHKFIALSDKEGKLLRNYTQNIDTLEQVAGIQRIIQCHGSFATASCLICKYKVDCEAVRGDIFNQVVPRCPRCPADEPLAIMKPEIVFFGENLPEQFHRAMKYDKDEVDLLIVIGSSLKVRPVALIPSSIPHEVPQILINREPLPHLHFDVELLGDCDVIINELCHRLGGEYAKLCCNPVKLSEITEKPPRTQKELAYLSELPPTPLHVSEDSSSPERTSPPDSSVIVTLLDQAAKSNDDLDVSESKGCMEEKPQEVQTSRNVESIAEQMENPDLKNVGSSTGEKNERTSVAGTVRKCWPNRVAKEQISRRLDGNQYLFLPPNRYIFHGAEVYSDSEDDVLSSSSCGSNSDSGTCQSPSLEEPMEDESEIEEFYNGLEDEPDVPERAGGAGFGTDGDDQEAINEAISVKQEVTDMNYPSNKS
notes: human NAD+-dependent deacetylase SIRT1, aa 1-3 (construct of 669 aa: aa 1-3 + 82-747); human NAD+-dependent deacetylase SIRT1, aa 82-747 (construct of 669 aa: aa 1-3 + 82-747); source: E. coli BL21 (DE3), purified (HisTrap FF, size-exclusion chromatography); not shown: His6, C-terminal, kept

Tests used:
[1] = molecular target: H1.2 (Homo sapiens, UniProt P16403 1-213); experiment: condensate FRAP; 5 uM histone, 5 uM DNA; Condensates: 1x PBS, RT; array EMSA: agarose gel with competitor DNA, buffer not in the material; settings: protein: recombinant; tags: C-terminal His6; label: Atto-390 at 5' end of the reverse strand; blunt
Chain of H1.2 (P16403 whole entry): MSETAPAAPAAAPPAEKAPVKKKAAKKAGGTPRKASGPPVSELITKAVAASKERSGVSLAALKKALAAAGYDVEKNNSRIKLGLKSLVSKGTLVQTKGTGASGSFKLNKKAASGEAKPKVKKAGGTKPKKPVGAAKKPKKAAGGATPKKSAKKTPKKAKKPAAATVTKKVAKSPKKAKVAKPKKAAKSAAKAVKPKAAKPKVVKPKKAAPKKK

[2] = molecular target: T1, linker histone H1.2 (unmodified, recombinant) (human, UniProt P16403 1-213); experiment: cross-linking; XL-MS: histone/Ub and SIRT1 at molar ratio 1:1 in 1x PBS, 2.75 mM BS3-H12/D12, 10 min on ice then 20 min at 30 °C; three biological replicates; settings: both partners purified
T1 construct: human linker histone H1.2; also called non-modified H1.2; unmodified H1.2; source: E. coli BL21 (DE3), purified from inclusion bodies (His-tag resin); not shown: Strep-tag II, N-terminal, kept; His6, C-terminal, kept
T1 sequence (P16403 whole entry): as above

Binder | binding result [1] | binding result [2]
B1 | binds | –
B2 | – | binds
